In the DeepSol protein solubility set:

assay: soluble on expression in E. coli; label from the status in PepcDB or PDB records

Sequence | soluble on expression in E. coli
MAGDPMTYRDFIGRLKENGKLVEIQQPVSPIFEASRIAKKTKGPVLFHNVSGSKVIMNLLGSRDELSSMLGVPKEEIIKKLSEVSPEGEVRLVPGSPTLEVIESEVDLTKLPILTHFEKDGAPYITAGIVVSEYEGVMNASIHRLMLVGKDKLAARLVPPRHTYLLHKKAAEKGETLPVAIVLGCDPTIIYATSTRVPAGKEFEYAAALRGTPVEVFECSNGIKVPHSEIILEGYIDTKERVDEGPFVDITGTYDMVRKEPVIHITRIIHRKDPIYHGILPAGPEHLLMMGVPYEPRIYRAVGEVTTVKNVVLTEGGCCYLHAVVQIEKQTEGDAKNAIMAAFAAHTSLKHVVVVDEDINIFDPNDVEFAIATRVKGDMDILTITNVRGSSLDPRGASDGTTTKVGIDATKVLIEKENFERAIIPEELEHHHHHH | not soluble
MAGEEINEDYPVEIHEYLSAFENSIGAVDEMLKTMMSVSRNELLQKLDPLEQAKVDLVSAYTLNSMFWVYLATQGVNPKEHPVKQELERIRVYMNRVKEITDKKKAGKLDRGAASRFVKNALWEPKSKNASKVANKGKSKS | not soluble
MAGNFDSEERSSWYWGRLSRQEAVALLQGQRHGVFLVRDSSTSPGDYVLSVSENSRVSHYIINSSGPRPPVPPSPAQPPPGVSPSRLRIGDQEFDSLPALLEFYKIHYLDTTTLIEPVSRSRQGSGVILRQEEAEYVRALFDFNGNDEEDLPFKKGDILRIRDKPEEQWWNAEDSEGKRGMIPVPYVEKYRPASASVSALIGGNQEGSHPQPLGGPEPGPYAQPSVNTPLPNLQNGPIYARVIQKRVPNAYDKTALALEVGELVKVTKINVSGQWEGECNGKRGHFPFTHVRLLDQQNPEEDFS | soluble
MAGYDVVVVGGGHAGLEAAWAAAALGVRVALVTVNPDRIGMMPCNPAVGGPGKSQLVAEVVALGGLMGRAADAAAIHTRVLNRSKGPAVQSLRVQVDRDLYALKAQEILAERPVEVLRGEVAALWVEGGRLLGVRTVDGRTLPAKAVVVAGGTFLSGVVWYGRKSRPAGRQGEPPARFLSQSLKAVGHTLRRFKTGTPPRIRADSVDFGRLEVVPPEVPPGSFTGNPGPHAARLPTWQTRTTERTHRLILENLHLSPLYAGDIQGIGPRYCPSIEDKVVRFADKESHLLFVEPDGLSTTEVYLQGFSSSLPPELQEEMVRSLPGFERAVIQRYAYAVEYDSLDPTELTRGLQSRFLPGLFSAGQVNGTSGYEEAAAQGLLAGLNAARFALGLPEVHLPRESGYIGVLVDDLVGRGTDEPYRMMTSRVELRLLCRADNADERLTPLAVAWGLRPREDLERVEAKYRRVAAELRRLEALRVEGVSGLQWLRRPENTYRALAERFPPPEPLSPEEAYQVEVRAKYAGYIERQERLREKMRDLEAFRIPEGMDFPKVPGLSREAAEKLSRHRPKSLAEAARIPGVRDSDLTALAVHLRRGA | not soluble
MAGYGAKGIRKVGAFRSGLEDKVSKQLESKGIKFEYEEWKVPYVIPASNHTYTPDFLLPNGIFVETAGLWESDDRKKHLLIREQHPELDIRIVFSSSRTKLYKGSPTSYGEFCEKHGIKFADKLIPAEWIKEPKKEVPFDRLKRKGGKK | soluble
MAHDLARGDKSDLRDKVVKPITNNVSVLVMGVDESDVRGKEYGDAIRTDALLLATFNKDSKTVKLLSIPRDTYTYIPVEKKKDKITHAHAYGSTKNGKDGGPQASIDAVEKLLNVPVDYFVKFNFKSFMKIVDDLGGIEVDVPVEFTEQDSNDNADAIHLKKGVQKLNSEEALALARTRHIDSDAMRGQRQQLVIEAILKKLTSVGSVTKVGNIIDDINGQFVTNLTFDDMLSFYKYGSDSEIEKLQIQGEDCYMAKGLEHHHHHH | soluble
MAHHHHHHHRSDASVIVVGAGPAGLMLAGELRLGGVDVMVLEQLPQRTGESRGLGFTARTMEVFDQRGILPAFGPVETSTQGHFGGRPVDFGVLEGAHYGVKAVPQSTTESVLEEWALGRGAELLRGHTVRALTDEGDHVVVEVEGPDGPRSLTTRYVVGCDGGRSTVRKAAGFDFPGTSASREMFLADIRGCEITPRPIGETVPLGMVMSAPLGDGVDRIIVCERGAPARRRTGPPPYQEVAAAWQRLTGQDISHGEPVWVSAFGDPARQVSAYRRGRVLLAGDSAHVHLPAGGQGMNVSVQDSVNLGWKLAAVVSGRAPAGLLDTYHEERHPVGRRLLMNTQAQGMLFLSGDEMQPLRDVLSELIRYDEVSRHLAGMVSGLDIRYEVDGGDHPLLGMRMPHQELVRAHGKTSTTELLHPARGVLLDIADDAEVREAATGWSDRVDIVTASLHDAPPQGPLSDARAVLVRPDGYVAWISPGSRAGLTEALDRWFGPAR | soluble
MAHHHHHHMAAPSHQHSLVLERSTCHHYYHCVLYDILFDLPVREIAAQVVPCKDSNIVQRLTSADCRVVPHQLHVYKEPLEKKFGYVSFFVHRAPHSSTAADDVHRLVCEWVAVDLASQLATVQCKVQLAQPPECHSSEPFLNAFRLKCPLLDPTLAADTKKLETFVLTRVRFGQHCGNASVNQLNAVHCDDAKSAASAGSCGTETEMCTDDGLTATEGELDAGARSATRTLDEHVWKCVGTFLIASLSPKELVWLKKQLPSFPPLRIANGDMDTAYCDEAKLAQFFETSLAPLFTVDEVVEAAALNTVNSEA | not soluble
MAHHHHHHMAASLSSSPVRHPIVDNAAVPAASHRIPPPLNGFAFLEHRRSALSHDTFIARDVRQQQHPEQQDNDPAKVIIRVYALEYLRRDEECRFALERECLTARLVVHPHLLPLGAPFASKTDLFVVEKYCAGGDLYELMVSLAKEDPIASEMGAAKGEAPPRSSTGLPTNTVKRFMRELLSAVQYLHRTCGLVHRNIKLETLFIDEEQHLRLGGFGLCAVLPPPSVVTGDREGALDAPDAPEDTASSSHEPLRLCCGSKHYAAPELVQGHPYQGEGVDAWACGVVLFALLTSCFPFDSDDGDEALFRLLCGDVEAHLAQHPAMAAIEDPQACDLVRNLLRPNPNARYTVSEALEHPYLWVA | not soluble
MAHHHHHHMALRGVPIRLGVHRVGYTHPSTLPVPCAQRWDLRLARARIFQEYIEEKAPGAWQLEDERSMSPEFKTFTGYPMREMRPGYGQNLPDFIMKKRLPNNTHYELFARRDIPNEENAMYGKYLYDMTVHGTSLPSTYRMHKDINKAQRNDRKLSGNRFRVLCSSGAKKPPSGWEPIPDATEEEE | not soluble
MAHHHHHHMASQKPEDVTVSDGMLANLEREFNEAMRALEGHVKFVCFREEYEKLHRALLNSHESEKRLVRRCQQLTQELMSNAAKMQAAVKLAQDDHTTIEALKKETEKAWRMVDVANEKDARAKETIKKLREEVFSLQEIVENGTELTPTQTATLEELKLEKKRMQSEYDELVKQMETLTRETFELGHKMKEAEEEMMKHQEELRRVTDREKTVRQEYEKELRARDRSNLQLREQLLLVQQREKELKSHEQLHSKLSSAVNLLRLQLQEDQNRRQALAQKIESAERQLYHTQQSYDDAVDTREALNERHREVRKEITEAEKKAVDITAEKQRTHRVRDNDYKELCRLVQQNEDIRRDQTNLERQRLNVEKRIEMARREKEDLCRAFEMMQREKDSLKKVSEKEREKMQIMKN | soluble
MAHHHHHHMATVYTSVPGKDFAKGVTLDEANRIVRVDAGLPLLSALQVGMIVRSIGGVPVGDGRCEQARHHSNRSQVLVVLGAPPKDEFDLCSDDDDAANLKPPSTLPPLPPEFNNSVAQNSSGVVYEATVKCGEGGCVIIMCEGANPALAITLAAEKAKAEVMYIDTVARMKTRQTLENAGEVLKKSLEKGLWIYVEQATKSITLLRQISDCIMEVRAAGKMHAQSRVLLMCEPHPHFPEALMRGSVTLRSRLQNNNMAEVDIREDLSESAHRKQAIHGDDVASSETAAKPEVTKTRKKVRISNQVNIVHLEKSTFMEMSASAQPPLESGTSHDGISRVAKYSFGSNENLISLSYVRDHRFAIGTNSGYVVLIDRNGLPLIQFRPHKACIWDVSFSSQFDFSTACEDGTSVIYKYSLANQELTTVSVASFQNDVFAVTYANPNDVNSGVLSGGLSATVCVLHSDRQNSSFIACRTSIQAMCATQMNQVIVGGGTGACTLIDTNHCVVTDITHAHNKKVPAVGTHGNVAVTGGFDCVLRLWDVRNGFHLTSQRQLNEVITAVAMNERYISACSGSSLYVWDPRKMDRTLAVKANAWKDLTRGLVLDGSTIVTASVDGVARIWEVS | not soluble
MAHHHHHHMCLSNLSYFFGAFEAVEPARSENDGGYASDWLSTLYSSLGLVLAHYLFEDNVEATVEATRILGNISYTNAGRDWMEANHCDEVTVLFLGHEDLRVVYNCCGVLLNLTAASPCRVVQDPELLQTMLSYTSRYTDQDRVEAVTALEEARLRQEQQELQQQRRGGDMKELVSEASSHVAQISDIVEKLLLNVHGVLHASAI | not soluble
